Paper PMC5400505, “Dissection of the interaction between the intrinsically disordered YAP protein and the transcription factor TEAD” (eLife, 2017)
Where a chain is given by its changes, count along the chain named. In names and notes the source's numbering stands.

B1: N-terminally V5-tagged hTEAD4 Asp272Ala (natural protein, human, UniProt Q15561 1-434, looked up)
chain: MEGTAGTITSNEWSSPTSPEGSTASGGSQALDKPIDNDAEGVWSPDIEQSFQEALAIYPPCGRRKIILSDEGKMYGRNELIARYIKLRTGKTRTRKQVSSHIQVLARRKAREIQAKLKDQAAKDKALQSMAAMSSAQIISATAFHSSMALARGPGRPAVSGFWQGALPGQAGTSHDVKPFSQQTYAVQPPLPLPGFESPAGPAPSPSAPPAPPWQGRSVASSKLWMLEFSAFLEQQQDPDTYNKHLFVHIGQSSPSYSDPYLEAVDIRQIYAKFPEKKGGLKDLFERGPSNAFFLVKFWADLNTNIEDEGSSFYGVSSQYESPENMIITCSTKVCSFGKQVVEKVETEYARYENGHYSYRIHRSPLCEYMINFIHKLKHLPEKYMMNSVLENFTILQVVTNRDTQETLLCIAYVFEVSASEHGAQHHIYRLVKE
B2: wt hYAP^50-171 (domain or fragment, human, UniProt P46937-1 50-171, looked up)
chain: AGHQIVHVRGDSETDLEALFNAVMNPKTANVPQTVPMRLRKLPDSFFKPPEPKSHSRQASTDAGTAGALTPQHVRAHSSPASLQLGAVSPGTLTPTGVVSGPAATPTAQHLRQSSFEIPDDV
notes: YAP (Yes-associated protein), human, residues 50-171 of NM_001130145.2; also called hYAP wt; Wild type; source: E. coli NiCo21 (DE3), purified (HisTrap, tag cleaved by HRV 3C protease, Resource S, Superdex 75); not shown: His6, N-terminal, cleaved
B3: hYAP^50-171 Phe96Ala (domain or fragment, human, UniProt P46937-1 50-171, looked up)
chain: B2 chain with F47A
notes: YAP (Yes-associated protein), human, residues 50-171 of NM_001130145.2; also called hYAP Phe96Ala; source: E. coli NiCo21 (DE3), purified (HisTrap, tag cleaved by HRV 3C protease, Resource S, Superdex 75); not shown: His6, N-terminal, cleaved
B4: hYAP^50-171 Phe95Ala (domain or fragment, human, UniProt P46937-1 50-171, looked up)
chain: B2 chain with F46A
notes: YAP (Yes-associated protein), human, residues 50-171 of NM_001130145.2; also called hYAP Phe95Ala; source: E. coli NiCo21 (DE3), purified (HisTrap, tag cleaved by HRV 3C protease, Resource S, Superdex 75); not shown: His6, N-terminal, cleaved
B5: hYAP^50-171 Leu91Ala (domain or fragment, human, UniProt P46937-1 50-171, looked up)
chain: B2 chain with L42A
notes: YAP (Yes-associated protein), human, residues 50-171 of NM_001130145.2; also called hYAP Leu91Ala; source: E. coli NiCo21 (DE3), purified (HisTrap, tag cleaved by HRV 3C protease, Resource S, Superdex 75); not shown: His6, N-terminal, cleaved
B6: hYAP^50-171 Arg89Ala (domain or fragment, human, UniProt P46937-1 50-171, looked up)
chain: B2 chain with R40A
notes: YAP (Yes-associated protein), human, residues 50-171 of NM_001130145.2; also called hYAP Arg89Ala; R89A; source: E. coli NiCo21 (DE3), purified (HisTrap, tag cleaved by HRV 3C protease, Resource S, Superdex 75); not shown: His6, N-terminal, cleaved
B7: hYAP^50-171 Met86Ala (domain or fragment, human, UniProt P46937-1 50-171, looked up)
chain: B2 chain with M37A
notes: YAP (Yes-associated protein), human, residues 50-171 of NM_001130145.2; also called hYAP Met86Ala; source: E. coli NiCo21 (DE3), purified (HisTrap, tag cleaved by HRV 3C protease, Resource S, Superdex 75); not shown: His6, N-terminal, cleaved
B8: hYAP^50-171 Ser94Ala (domain or fragment, human, UniProt P46937-1 50-171, looked up)
chain: B2 chain with S45A
notes: YAP (Yes-associated protein), human, residues 50-171 of NM_001130145.2; also called hYAP Ser94Ala; source: E. coli NiCo21 (DE3), purified (HisTrap, tag cleaved by HRV 3C protease, Resource S, Superdex 75); not shown: His6, N-terminal, cleaved
B9: hYAP^50-171 Phe69Ala (domain or fragment, human, UniProt P46937-1 50-171, looked up)
chain: B2 chain with F20A
notes: YAP (Yes-associated protein), human, residues 50-171 of NM_001130145.2; also called hYAP Phe69Ala; source: E. coli NiCo21 (DE3), purified (HisTrap, tag cleaved by HRV 3C protease, Resource S, Superdex 75); not shown: His6, N-terminal, cleaved
B10: hYAP^50-171 Leu65Ala (domain or fragment, human, UniProt P46937-1 50-171, looked up)
chain: B2 chain with L16A
notes: YAP (Yes-associated protein), human, residues 50-171 of NM_001130145.2; also called hYAP Leu65Ala; source: E. coli NiCo21 (DE3), purified (HisTrap, tag cleaved by HRV 3C protease, Resource S, Superdex 75); not shown: His6, N-terminal, cleaved
B11: hYAP^50-171 Leu68Ala (domain or fragment, human, UniProt P46937-1 50-171, looked up)
chain: B2 chain with L19A
notes: YAP (Yes-associated protein), human, residues 50-171 of NM_001130145.2; also called hYAP Leu68Ala; source: E. coli NiCo21 (DE3), purified (HisTrap, tag cleaved by HRV 3C protease, Resource S, Superdex 75); not shown: His6, N-terminal, cleaved

The binders below were run against wt hYAP (full length) (human, UniProt P46937 1-504) (assay: cell-based or functional assay). Conditions: not given.
wt hYAP (full length), sequence (P46937 whole entry): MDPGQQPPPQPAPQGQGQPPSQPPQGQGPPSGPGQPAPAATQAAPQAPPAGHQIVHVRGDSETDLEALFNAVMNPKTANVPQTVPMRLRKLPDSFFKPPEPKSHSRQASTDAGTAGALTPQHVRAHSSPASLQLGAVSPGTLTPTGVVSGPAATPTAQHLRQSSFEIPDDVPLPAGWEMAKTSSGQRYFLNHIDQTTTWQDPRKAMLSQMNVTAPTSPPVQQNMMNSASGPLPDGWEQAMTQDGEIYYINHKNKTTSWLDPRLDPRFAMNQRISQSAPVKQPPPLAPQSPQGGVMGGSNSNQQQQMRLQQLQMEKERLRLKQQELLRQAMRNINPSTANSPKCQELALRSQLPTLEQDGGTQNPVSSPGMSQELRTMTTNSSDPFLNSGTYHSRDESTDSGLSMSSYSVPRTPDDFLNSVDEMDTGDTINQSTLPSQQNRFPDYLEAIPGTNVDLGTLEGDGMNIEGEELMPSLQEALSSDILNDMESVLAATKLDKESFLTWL

MCAT_Luc reporter luciferase activity in HEK293::MCAT_Luc cells co-transfected with wt hYAP; against wt hTEAD4	Binder
~4 fold reduction	B1

Each binder was assayed against T1, N-Avitagged wt hTEAD4^217-434 (human, UniProt Q15561 217-434, acylated at Cys367 (100%)) (assay: SPR; N-Avitagged hTEAD4^217-434 proteins immobilised on Series S Sensor Chip SA, YAP^50-171 proteins as analyte; Biacore T200; 25°C (298 K); 50 mM HEPES, 100 mM KCl, 0.25 mM TCEP, 1 mM EDTA, 0.05% Tween 20, 0.05% BSA, 2% DMSO, pH 7.4; Kd from equilibrium data (Kd^eq); upper limit for Kd^eq 200 µM). Conditions: both partners purified.
T1 construct: TEAD4 (TEA/ATTS domain transcription factor 4), human, residues 217-434; held on streptavidin (SA) chips; also called Wild type; source: purified; not shown: Avitag, N-terminal, kept
T1 sequence (Q15561 217-434): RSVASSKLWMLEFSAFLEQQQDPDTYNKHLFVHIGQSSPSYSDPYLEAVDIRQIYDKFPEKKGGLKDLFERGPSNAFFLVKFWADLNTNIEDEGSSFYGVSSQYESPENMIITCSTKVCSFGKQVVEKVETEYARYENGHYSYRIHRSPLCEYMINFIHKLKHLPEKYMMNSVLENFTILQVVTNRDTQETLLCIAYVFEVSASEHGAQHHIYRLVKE

Kd	Binder
0.018 µM	B2
4.75 µM	B3
26 µM	B4
30.6 µM	B5
27.4 µM	B6
2.08 µM	B7
5.62 µM	B8
6.45 µM	B9
0.794 µM	B10
0.464 µM	B11
